In article PMC3720550 one finds pKa data, which are given here for two substances.

Common to all, as to assay: UV-vis
Common to all, as to conditions: not stated (1 mM each of sodium phosphate, sodium citrate and sodium borate; 0.1 mM EDTA; no added salt mentioned), Polybuffer: 1 mM each of sodium phosphate, with 0.1 mM EDTA. Starting pH 9.3, titrated with 25 mM HCl., Reduced (DTT-treated, desalted) active-site dithiol form, folded, 10-25 µM protein, the oxidised (diamide) protein served as reference

Series [1] has as its target Cys12 (UniProt position 12, YAQPDCPPCVI).
The target in series [2] is Cys12 (UniProt position 12, YTQPDCPPCVI).
The next series deals with Cys15 (UniProt position 15, PDCPPCVIVKE).

As for “Thioredoxin BC3987 T8A mutant (Bacillus cereus ATCC 14579; T8A)”, the pKa with Cys12 [1] was 7.2.
With “Thioredoxin BC3987 (NrdH/Cp9-like small thioredoxin, C-P-P-C active site) (Bacillus cereus ATCC 14579)”, the pKa is 7.2 with Cys12 [2] and 5.1 with Cys15.

As a reminder, the pKa is the pH at which an ionisable group is half protonated.
